Laboratory results from US20090252748A1 (Biogen, published 2009).

Experiments:
[1] = target: T1, full-length human Sp35 with an N-terminal HA tag (lysate of transfected COS-1 cells) (human, UniProt Q96FE5 40-620); assay: IP
T1 construct: used here for all IP columns headed huSp35 / hLINGO-1; also called huSp35 (IP); hLINGO-1 (IP)
T1 sequence: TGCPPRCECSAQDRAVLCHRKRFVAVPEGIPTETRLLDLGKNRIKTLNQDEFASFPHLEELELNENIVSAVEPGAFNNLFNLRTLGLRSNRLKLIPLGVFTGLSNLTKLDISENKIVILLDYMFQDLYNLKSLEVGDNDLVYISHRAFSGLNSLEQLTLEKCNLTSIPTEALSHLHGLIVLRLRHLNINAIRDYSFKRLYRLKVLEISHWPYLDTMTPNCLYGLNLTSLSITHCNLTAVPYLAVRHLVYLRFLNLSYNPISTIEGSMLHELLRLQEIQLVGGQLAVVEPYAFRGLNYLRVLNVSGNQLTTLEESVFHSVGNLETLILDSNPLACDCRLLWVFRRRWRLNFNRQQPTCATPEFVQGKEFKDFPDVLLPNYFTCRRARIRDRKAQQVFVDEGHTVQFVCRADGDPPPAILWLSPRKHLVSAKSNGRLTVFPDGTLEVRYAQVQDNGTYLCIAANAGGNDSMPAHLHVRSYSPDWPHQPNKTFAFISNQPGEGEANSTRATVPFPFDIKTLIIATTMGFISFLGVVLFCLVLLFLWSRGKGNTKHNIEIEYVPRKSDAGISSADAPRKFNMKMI
Description: To perform the immunoprecipitation, COS-1 cells expressing Sp35, fused to a hemaglutinin (HA) tag on the N-terminus, were produced by transiently transfecting COS-1 cells with a DNA construct which expresses the full-length Sp35 protein with an HA tag. Cells were harvested 48 hr after transfection and were lysed in 1 ml lysis buffer (50 mM HEPES, pH 7.5, 150 mM NaCl, 1.5 mM MgCl₂, 1 mM EGTA, 1% Triton X-100 and 10% glycerol) for 30 min at 4° C. After centrifugation at 14,000×g for 15 min, the supernatants were incubated with ProteinA/G-Sepharose beads (Santa Cruz) at 4° C. for 1 hr, and then incubated at 4° C. for 1 hr with either the 1A7 or the 2F3 anti-Sp35 murine monoclonal antibodies. The beads were washed 3 times with lysis buffer, boiled in Laemmli sample buffer, subjected to 4-20% SDS-PAGE, and analyzed by Western blotting using an antibody which recognizes the HA tag. As shown on the SDS-PAGE gel, monoclonal antibodies 1A7 and 2F3, immunoprecipitated human and murine Sp35 (FIG. 1). […] Similarly, monoclonal antibodies 1G7, 2B10, 2F3, 3P4C2.2D2, 3P4C8.2G9, Li01, Li03, Li05, Li06, Li07, Li08, Li11, Li12, 7P1D5.1G9 and 3B5.2 immunoprecipitate human or mouse or human and mouse Sp35 (See Table 3B and 3C). Additionally, Li08 immunoprecipitates AP-Sp35 and monoclonal antibodies 1B6.4 and 3E3.1 immunoprecipitate endogenous Sp35 (See Table 3B).

[2] = target: T2, Sp35-Fc fusion protein (human Sp35 residues 1-532 fused to hinge and Fc of human IgG1) (human, UniProt Q96FE5 40-538); assay: ELISA
T2 construct: also called LINGO-1-Ig; LINGO-1-Fc; not shown: hinge and Fc region of human IgG1
T2 sequence: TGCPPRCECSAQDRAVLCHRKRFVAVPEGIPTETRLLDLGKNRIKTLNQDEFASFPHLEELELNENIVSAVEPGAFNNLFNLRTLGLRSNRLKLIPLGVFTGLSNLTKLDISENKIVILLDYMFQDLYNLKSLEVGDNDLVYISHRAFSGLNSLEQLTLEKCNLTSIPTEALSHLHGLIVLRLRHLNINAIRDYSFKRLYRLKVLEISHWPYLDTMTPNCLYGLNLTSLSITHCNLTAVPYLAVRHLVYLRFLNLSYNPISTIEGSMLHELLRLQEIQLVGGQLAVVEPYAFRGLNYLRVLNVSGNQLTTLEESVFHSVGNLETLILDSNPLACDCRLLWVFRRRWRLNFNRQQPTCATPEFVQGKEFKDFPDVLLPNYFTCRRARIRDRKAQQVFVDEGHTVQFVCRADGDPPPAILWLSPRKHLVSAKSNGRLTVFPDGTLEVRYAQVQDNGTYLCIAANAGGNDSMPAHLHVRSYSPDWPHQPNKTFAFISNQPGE
Description: (§1) In order to determine which regions of the Sp35 polypeptide were bound by the various hybridoma- and phage display-derived monoclonal antibodies produced in Example 2, an ELISA assay was performed using a panel of truncated Sp35 polypeptides, each fused to the hinge and Fc regions of IgG1 by the methods described in Example 1. […] Ovalbumin and BSA were used as controls. […] The affinity of these latter antibodies for mouse and rat Sp35 was restored to the level seen using human Sp35 when amino acid 419 of the mouse or rat Sp35 is changed from histidine (H) to arginine (R). Arginine is the amino acid at position 419 in human Sp35. […] AP substrate was then developed by 10 mg/ml 4 NPP in 0.1 M Glycine, 1 mM MgCl₂, 1 mM ZnCl₂, pH 10.5, and read at O.D. 405.

[3] = target: T3, Sp35 fragment 34-532 (ELISA) (human, UniProt Q96FE5 40-538); assay: ELISA
T3 sequence: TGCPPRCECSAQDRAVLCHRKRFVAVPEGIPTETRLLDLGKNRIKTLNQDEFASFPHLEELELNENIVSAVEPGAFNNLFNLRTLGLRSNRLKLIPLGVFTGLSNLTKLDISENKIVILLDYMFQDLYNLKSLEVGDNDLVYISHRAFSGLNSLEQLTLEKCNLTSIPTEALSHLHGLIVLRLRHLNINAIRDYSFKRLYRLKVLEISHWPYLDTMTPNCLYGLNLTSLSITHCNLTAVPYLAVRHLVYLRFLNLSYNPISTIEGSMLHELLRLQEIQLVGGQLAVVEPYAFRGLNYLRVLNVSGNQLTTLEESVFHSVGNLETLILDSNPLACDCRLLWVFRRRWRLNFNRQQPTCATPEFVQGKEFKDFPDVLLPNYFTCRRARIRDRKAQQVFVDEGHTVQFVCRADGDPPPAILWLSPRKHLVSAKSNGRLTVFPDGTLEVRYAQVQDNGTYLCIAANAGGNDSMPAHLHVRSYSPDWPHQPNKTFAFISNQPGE
Description: as §1

[4] = target: T4, human Sp35 protein (ELISA, Western, KD; form not stated) (human, UniProt Q96FE5 40-538, limits assumed); assay: ELISA
T4 construct: also called huSp35; hLINGO-1
T4 sequence: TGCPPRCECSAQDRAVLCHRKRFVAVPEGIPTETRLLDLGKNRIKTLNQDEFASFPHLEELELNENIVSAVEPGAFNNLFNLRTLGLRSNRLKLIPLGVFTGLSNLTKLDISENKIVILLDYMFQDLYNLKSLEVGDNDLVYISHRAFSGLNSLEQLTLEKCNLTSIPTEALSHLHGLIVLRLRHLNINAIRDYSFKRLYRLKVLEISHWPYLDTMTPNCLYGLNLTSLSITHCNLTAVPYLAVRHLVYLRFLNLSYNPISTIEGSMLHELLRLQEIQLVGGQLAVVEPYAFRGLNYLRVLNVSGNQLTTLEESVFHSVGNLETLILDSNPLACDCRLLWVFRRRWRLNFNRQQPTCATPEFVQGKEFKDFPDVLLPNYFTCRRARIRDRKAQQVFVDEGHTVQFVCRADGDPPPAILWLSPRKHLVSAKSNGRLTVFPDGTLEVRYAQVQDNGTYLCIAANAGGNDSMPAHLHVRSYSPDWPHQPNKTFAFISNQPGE

[5] = target: T5, human Sp35 protein expressed on transfected cells (human, UniProt Q96FE5 40-620); assay: FACS
T5 construct: also called huSp35; hLINGO-1
T5 sequence: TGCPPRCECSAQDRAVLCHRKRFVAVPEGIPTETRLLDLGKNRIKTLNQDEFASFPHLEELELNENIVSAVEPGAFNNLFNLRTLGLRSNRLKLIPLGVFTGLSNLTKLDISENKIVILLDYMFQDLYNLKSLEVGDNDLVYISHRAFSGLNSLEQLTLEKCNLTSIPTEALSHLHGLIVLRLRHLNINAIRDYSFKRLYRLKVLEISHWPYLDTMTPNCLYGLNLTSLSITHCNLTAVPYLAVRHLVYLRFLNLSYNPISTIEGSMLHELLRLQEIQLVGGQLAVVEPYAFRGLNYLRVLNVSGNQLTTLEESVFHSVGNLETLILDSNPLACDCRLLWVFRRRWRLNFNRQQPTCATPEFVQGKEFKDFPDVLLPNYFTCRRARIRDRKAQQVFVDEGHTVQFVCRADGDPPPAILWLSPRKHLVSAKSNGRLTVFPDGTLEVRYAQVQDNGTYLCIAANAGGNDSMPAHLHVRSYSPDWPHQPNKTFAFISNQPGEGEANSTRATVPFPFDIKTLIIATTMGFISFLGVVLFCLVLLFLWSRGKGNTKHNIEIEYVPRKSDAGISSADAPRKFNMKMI

Measured: binding result

B1: 3P1D10.2C3 (antibody, mouse IgG1, V domains shown)
VH: QVQLQQSGAELARPGASVKLSCRASGYTFTSSWTQWVKQRPGQGLEWIGAIYPGDGDTRYTQKFKGKATLTADKSSSTAYMQLSSLASEDSAVYYCARHNSYGMDYWGQGTSVTVSS
VL: DIVMTQSPSSLTVTAGEKVTMSCKSSQSLLNSGNQKNYLTWYQQKPGQPPKLLIYWASTRESGVPDRFTGSGSGTDFTLTINSVQAEDLAVYYCQNDYSYPLFTFGSGTKLEIR
notes: murine IgG1
binds: [1] | [2] | [3] | [4]

B2: 3P1E11.3B7 (antibody, mouse IgG1, V domains shown)
VH: QVQLQQSGAELARPGASVKLSCRASGYTFTSSWTQWVKQRPGQGLEWIGAIYPGDGDTRYTQKFKGKATLTADKSSSTAYMQLSSLASEDSAVYYCARHNSYGMDYWGQGTSVTVSS
VL: DIVMTQSPSSLTVTAGEKVTMSCKSSQSLLNSGNQKSYLTWYQQKPGQPPKLLIYWASTRESGVPDRFTGSGSGTDFTLTINSVQAEDLAVYYCQNDYSYPLFTFGSGTKLEIR
notes: murine IgG1
binds: [1] | [2] | [3] | [4]

B3: 35-E04 (Li03) Fab (Fab, V domains shown)
VH: EVQLLESGGGLVQPGGSLRLSCAASGFTFSQYPMEWVRQAPGKGLEWVSGIYPSGGSTVYADSVKGRFTISRDNSKNTLYLQMNSLRAEDTAVYYCARAGQWLGDFDYWGQGTLVTVSS
VL: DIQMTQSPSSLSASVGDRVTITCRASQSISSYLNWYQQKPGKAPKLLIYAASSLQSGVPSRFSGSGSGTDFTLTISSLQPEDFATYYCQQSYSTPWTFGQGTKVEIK
notes: human, kappa; also called Dli03
binds: [1] | [4]

B4: 30-B01 (Li11) Fab (Fab, V domains shown)
VH: EVQLLESGGGLVQPGGSLRLSCAASGFTFSSYAMYWVRQAPGKGLEWVSSISTSGGYTGYADSVKGRFTISRDNSKNTLYLQMNSLRAEDTAVYYCARDTSDNDYYYMDVWGKGTTVTVSS
VL: DIQMTQSPSSVSAPIGDRVTITCRASQEIANYLAWYQQKPGKAPKLLIYDTYTLQTDVPPRFSGSGSGTDFTLTISSLQPEDTATYFCQQADIFPLSFGGGTKVEIK
notes: human, kappa; also called Dli11; Li011
binds: [1] | [5] | [4]
